Measured values published in patent US20230105457A1, “Immunogenic Compounds For Treatment Of Adrenal Cancer” (ENTEROME S.A., priority 2019, published 2023).
Like-named read-outs stand apart in the source and are kept apart here.

Key:
[1] = target: T1, HLA-A*0201 molecule expressed on human tumor cell line T2 (human); test: T2 cell HLA-A2 stabilisation, FACS; peptide at 25 µM
T1 construct: surface HLA-A2 read with anti-HLA-A2 antibody BB7.2-PE by FACS; also called HLA-A2

[2] = target: T1, HLA-A*0201 molecule expressed on human …; test: T2 cell HLA-A2 stabilisation, FACS; ratio of 20% concentration to that of HIV pol 589-597 (lower = stronger)
[3] = target: T1, HLA-A*0201 molecule expressed on human …; test: T2 cell HLA-A2 stabilisation, FACS; peptide at 50 µM
[4] = target: T1, HLA-A*0201 molecule expressed on human …; test: T2 cell HLA-A2 stabilisation, FACS; peptide at 100 µM
[5] = target: T1, HLA-A*0201 molecule expressed on human …; test: T2 cell HLA-A2 stabilisation, FACS; peptide at 6.25 µM
[6] = target: T1, HLA-A*0201 molecule expressed on human …; test: T2 cell HLA-A2 stabilisation, FACS; peptide at 1.5625 µM
[7] = target: T1, HLA-A*0201 molecule expressed on human …; test: T2 cell HLA-A2 stabilisation, FACS; peptide at 1 µM
[8] = target: T1, HLA-A*0201 molecule expressed on human …; test: T2 cell HLA-A2 stabilisation, FACS; 20% of signal of HIV pol 589-597 at 100 µM
[9] = target: T1, HLA-A*0201 molecule expressed on human …; test: T2 cell HLA-A2 stabilisation, FACS; ratio of 20% concentration to that of HIV pol 589-597 (lower = stronger); remark: listed apart in the source
[10] = target: T1, HLA-A*0201 molecule expressed on human …; test: T2 cell HLA-A2 stabilisation, FACS; peptide at 0.1 µM
[11] = target: T1, HLA-A*0201 molecule expressed on human …; test: T2 cell HLA-A2 stabilisation, FACS; peptide at 3.125 µM
[12] = target: T1, HLA-A*0201 molecule expressed on human …; test: T2 cell HLA-A2 stabilisation, FACS; 20% of signal of HIV pol 589-597 at 100 µM; remark: listed apart in the source
[13] = target: T1, HLA-A*0201 molecule expressed on human …; test: T2 cell HLA-A2 stabilisation, FACS; peptide at 100 µM; remark: listed apart in the source
[14] = target: T1, HLA-A*0201 molecule expressed on human …; test: T2 cell HLA-A2 stabilisation, FACS; peptide at 10 µM
[15] = target: T1, HLA-A*0201 molecule expressed on human …; test: T2 cell HLA-A2 stabilisation, FACS; ratio of 20% concentration to that of HIV pol 589-597 (lower = stronger); remark: listed apart in the source
[16] = target: T1, HLA-A*0201 molecule expressed on human …; test: as above; remark: listed apart in the source
[17] = target: T1, HLA-A*0201 molecule expressed on human …; test: T2 cell HLA-A2 stabilisation, FACS; 20% of signal of HIV pol 589-597 at 100 µM; remark: listed apart in the source
[18] = target: T1, HLA-A*0201 molecule expressed on human …; test: as above; remark: listed apart in the source
[19] = target: T1, HLA-A*0201 molecule expressed on human …; test: T2 cell HLA-A2 stabilisation, FACS; ratio of 20% concentration to that of HIV pol 589-597 (lower = stronger); remark: listed apart in the source

B1: BIRC5-H (peptide)
peptide: LTLGEFLKL
mean relative fluorescence intensity [1]: 9.8 relative (HIV peptide = 100) | In vitro binding affinity (relative affinity) [2]: 16.1 | mean relative fluorescence intensity [3]: 18.9 relative (HIV peptide = 100) | mean relative fluorescence intensity [4]: 20.5 relative (HIV peptide = 100) | mean relative fluorescence intensity [5]: 10.8 relative (HIV peptide = 100) | mean relative fluorescence intensity [6]: 1.7 relative (HIV peptide = 100) | mean relative fluorescence intensity [7]: 0 relative (HIV peptide = 100) | Concentration of peptide that induces 20% of HLA-A2 expression [8]: 53 µM | In vitro binding affinity (relative affinity) [9]: 113 | mean relative fluorescence intensity [10]: 0 relative (HIV peptide = 100) | mean relative fluorescence intensity [11]: 1.4 relative (HIV peptide = 100) | Concentration of peptide that induces 20% of HLA-A2 expression [12]: 95.9 µM | mean relative fluorescence intensity [13]: 35.6 relative (HIV peptide = 100) | mean relative fluorescence intensity [14]: 3.52 relative (HIV peptide = 100)

B2: IL13RA2-L (peptide)
peptide: FLPFGFILPV
notes: also called IL13R2A-L
In vitro binding affinity (relative affinity) [2]: 0.3 | In vitro binding affinity (relative affinity) [15]: 0.3 | In vitro binding affinity (relative affinity) [16]: 0.53

B3: IL13RA2-B (peptide)
peptide: FLPFGFILV
notes: also called candidate peptide
mean relative fluorescence intensity [1]: 86.5 relative (HIV peptide = 100) | In vitro binding affinity (relative affinity) [2]: 0.3 | mean relative fluorescence intensity [3]: 113 relative (HIV peptide = 100) | mean relative fluorescence intensity [5]: 40.8 relative (HIV peptide = 100) | Concentration of peptide that induces 20% of HLA-A2 expression [17]: 1.9 µM | mean relative fluorescence intensity [6]: 14.8 relative (HIV peptide = 100) | Concentration of peptide that induces 20% of HLA-A2 expression [8]: 2.9 µM | Concentration of peptide that induces 20% of HLA-A2 expression [18]: 2.9 µM | In vitro binding affinity (relative affinity) [15]: 0.3 | In vitro binding affinity (relative affinity) [19]: 0.49 | mean relative fluorescence intensity [11]: 15.7 relative (HIV peptide = 100) | In vitro binding affinity (relative affinity) [16]: 2.48 | mean relative fluorescence intensity [13]: 128 relative (HIV peptide = 100)

B4: 1A9V (peptide)
peptide: ALPFGFILV
notes: also called comparative peptide of Eguchi et al. 2006
Concentration of peptide that induces 20% of HLA-A2 expression [17]: 20.9 µM | Concentration of peptide that induces 20% of HLA-A2 expression [18]: 36.5 µM | In vitro binding affinity (relative affinity) [15]: 3.6 | In vitro binding affinity (relative affinity) [19]: 3.06 | In vitro binding affinity (relative affinity) [16]: 27.7
